Laboratory results: publication PMC5829272

What was measured:
cultured NSCs = settings: glycan lost; control: wild type NSCs
RNA sequencing of NSCs = settings: glycan lost; control: wild type NSCs
cultured NSCs in vitro = settings: glycan lost; control: wild type NSCs
[1] = qPCR, Western blot, immunofluorescence; settings: glycan lost; control: wild type
[2] = GFAP/lectin immunofluorescence in cortex; settings: glycan lost; control: wild type mice
[3] = DMP1 immunofluorescence intensity in brain; settings: glycan lost; control: wild type mice
[4] = RNA sequencing of primary astrocyte cultures; settings: glycan lost; control: wild type astrocytes
[5] = immunofluorescence, retrosplenial granular cortex; settings: glycan lost; control: wild type mice
[6] = spontaneous differentiation after EGF/bFGF withdrawal; settings: glycan lost; control: wild type NSCs
[7] = intraperitoneal Evans blue, leakage area in brain sections; settings: glycan lost; control: wild type mice
[8] = transmission electron microscopy, retrosplenial granular cortex; settings: glycan lost; control: wild type mice

B1: Dentin matrix protein 1 (DMP1): S89G-DMP1 (protein)
parent chain: MKTVILLVFLWGLSCALPVARYHNTESESSEERTGDLAGSPPPPTNSESSEESQASPEGQANSDHTDSSESGEELGYDRGQYRPAGGLSKSTGTGADKEDDEDDSGDDTFGDEDNDLGPEEGQWGGPSKLDSDEDSTDTTQSSEDSTSQENSAQDTPSDSKDHDSEDEADSRPEAGDSTQDSESEEQRVGGGSEGESSHGDGSEFDDEGMQSDDPESTRSDRGHARMSSAGIRSEESKGDHEPTSTQDSDDSQSVEFSSRKSFRRSHVSEEDYRGELTDSNSRETQSDSTEDTASKEESRSESQEDTAESQSQEDSPEGQDPSSESSEEAGEPSQESSSESQEGVTSESRGDNPDNTSQAGDQEDSESSEEDSLNTFSSSESQSTEEQADSESNESLSLSEESQESAQDGDSSSQEGLQSQSASTESRSQESQSEQDSRSEEDSDSQDSSRSKEESNSTGSASSSEEDIRPKNMEADSRKLIVDAYHNKPIGDQDDNDCQDGY
Which results are given for B1?
other: neural stem cell apoptosis (cultured NSCs): no change; other: neural stem cell transcriptome (RNA sequencing of NSCs): changes; other: neural stem cell proliferation (cultured NSCs in vitro): increases; other: AQP4 expression in astrocytes and brain [1]: decreases; other: astrocyte end feet coverage of blood vessels [2]: decreases; expression_or_secretion [3]: no change; other: astrocyte transcriptome [4]: changes; other: laminin and ZO1 expression at vasculature [5]: decreases; other: neural stem cell differentiation [6]: no change; other: blood-brain barrier integrity [7]: decreases; other: astrocyte cell-cell adhesion [8]: decreases
